Changes are numbered by the printed parent chain.
B1: OsCGT: C-glycosyltransferase from Japonica rice, SEQ ID NO: 19 (protein)
chain: MPSSGDAAGRRPHVVLIPSAGMGHLVPFGRLAVALSSGHGCDVSLVTVLPTVSTAESKHLDALFDAFPAVRRLDFELAPFDASEFPSADPFFLRFEAMRRSAPLLGPLLTGAGASALATDIALTSVVIPVAKEQGLPCHILFTASAAMLSLCAYFPTYLDANAGDGGGVGDVDIPGVYRIPKASIPQALHDPNHLFTRQFVANGRSLTSAAGILVNTFDALEPEAVAALQQGKVASGFPPVFAVGPLLPASNQAKDPQANYMEWLDAQPARSVVYVSFGSRKAISGEQLRELAAGLETSGHRFLWVVKSTVVDRDDAAELGELLGEGFLKRVEKRGLVTKAWVDQEEVLKHESVALFVSHCGWNSVTEAAASGVPVLALPRFGDQRVNSGVVARAGLGVWADTWSWEGEAGVIGAEEISEKVKAAMADEALRRKAASLAKAAAKAVAGGGSSHRCLVEFARLCQGGTCRTN
modifications: Oryza Sativa japonica
B2: SiCGT2: C-glycosyltransferase from millet, SEQ ID NO: 18 (protein, listed as Setaria italica)
chain: MSSPPPPNSTSDDCQGTAATPHIVLFPSAGMGHLVPFTRLAVALSAGHCCDVSLVTALPTVSSAESCHIAALFAAFPAVRRLDLRLAPLDASSEFPGADPFYVRYEALRRSTPLLLGPLLAGASASALVADIALASVAIPVARELRVPCYVFFTASATMLSFKAYFPTYLDANGGAGHSVGDVDVPGVCRVPRSSIPQALHDPDDIFTRQFVANGRALVAADGLLVNAFEAMEPEAVAALLGGSVVASLPPVFAVGPLMPLNLREAAEEQGNYRAWLDAQPPRSVVYVSFGSRKALARDQIRELAAWLEACGHRFLWVVKGAVVDRDDACELSDLLGEGFQRRVEGRGLVTKSWVEQDEVLRHPAVGLFVSHCGWNSVTEAAANGVPVLAWPRFADQRVNARVVARAGFGVWVERWSWEGEEAVVGAEEIAEQVVAAMGDQAVAEKAASVRDEAARAVADGGTSQQSLAEFVRRCRGGLAGPGTDLGRTWTARG
B3: SiCGT1: C-glycosyltransferase from millet, SEQ ID NO: 17 (protein, listed as Setaria italica)
chain: MPTSGDHSGARPHVVLLPSAGMGHLVPFGRLAVALSAGHGCDVSVAAVLPTVSSAEARHLEALFAAADPAVRRLDFRLAPFDASEFPGADPFFLRFEAMRRSAPLLGPLLATAGASAVVTDIVLASVVLPVARECGVPCYVLFTASAAMLAFCAHFPGYLDANSAAGRAGVVGDVDIPGVYRIPKSSVPQALHDPKHLFTQQFVANGRGLVDADGILVNTFDALEPEAVTALRKGKVVSSFPLVFAVGPLLPVMFPAKDPAGYMQWLDAQPARSVVYVSFGSRTAISPDQLLELAAGLEASGHRFLWVVKSTVVDRDDAGELGDLLGHGFLERVRGRALVTKGWVEQEEILQHGSVGLFVSHCGWNSVTEAAAFGVPVLAWPRFGDQRINAAVVTRGGLGAWEERWSWDGEEGLVSGEEVGEKIKAVMADETVAKKAAAVGDAAAAAATSKGGTSYRSLAEFVGRCRDAGSRQDR
B4: TaCGT2-D: C-glycosyltransferase from wheat, SEQ ID NO: 13 (protein, listed as Triticum aestivum)
chain: MASSSRDDRAGAAAPRPRIVLIPSAGMGHLAPFSRLAAALSSGHTCNVSLVTVLPTVSSAESGHLDALFAAFPAVRRLDFQLPPLDAPELSGADPFYVHYEATRRSARLLAPLLAAADASALVADISLASVLIPVASELRLPCYVFFTASATMFSFYAYYPTYLDAAGAGDADVPGVYRIPKSSFPQALHDRNNLFTQQFVANGQSLSKADGLLINTFDALEPEAVTALRQGSVVPGFPPVFNVGPLSPVSFPARASSDYSAWLDAQPERSVVYVSFGSRKALARDQLSELADGLEASGCRFLWVVKGTVVDKDDGAELSELLGEGFLQRVSGRALVTKAWVEQGEVLKHPAIGMFVSHCGWNSLTEAFASGVPVLAWPRFADQRVNAGIVARRGAGVWVERWSWEGDDGVVKGEEIAEKVKSVMADEMLRRSSTVVREAAMTAVAGGGTSYRSLAELVARCCDGSASNAPSEA
B5: BdCGT1: C-glycosyltransferase from Brachypodium distachyo, SEQ ID NO: 16 (protein)
chain: MPTSGDGPTSQPHVVLLPSAGMGHLVPFSRLAVALSSAHGCDVSLVTVLPTVSSAESSHLEALFGAFPAVRRLEFHLADFDASEFPNADPFFLRFEAMRRSAPLLLGPLLARASATALVTDIALSSVVIPVAKQLRLPCYVLFTASAAMLSLCVHFPAYLDANGNGLVGDVDIPGVYQIPKASVPQALHDPKHLFTRQFVANGRELAKSDGVLVNSFDAFEPEAIAALREGAVSAAGFFPPVFSVGPLAPVSFPAGNNNRADYIQWLEAQPARSVVYVSFGSRKAVARDQLRELAAGLEASGHRFLWVVKSTVVDRDDDADLGELLGEGFLERVQGRGMVTKGWVEQEDVLKQESVGLFISHCGWNSVTEAAAGGLPVLAWPRFGDQRVNAGVVARSGLGVWVDSWSWEGEEGVVSGESIAEKVKAVMGDEIARNKAVSVRDAAAKAVADGGTSYRNLARFAQRCRDGRVRE
modifications: Brachypodium distachyon
B6: ZmCGT: C-glycosyltransferase from maize, SEQ ID NO: 20 (protein)
chain: MAANGGDHTSARPHVVLLPSAGMGHLVPFARLAVALSEGHGCNVSVAAVQPTVSSAESRLLDALFVAAAPAVRRLDFRLAPFDESEFPGADPFFLRFEATRRSAPLLGPLLDAAEASALVTDIVLASVALPVARERGVPCYVLFTSSAAMLSLCAYFPAYLDAHAAAGSVGVGVGNVDIPGVFRIPKSSVPQALHDPDHLFTQQFVANGRCLVACDGILVNTFDAFEPDAVTALRQGSITVSGGFPPVFTVGPMLPVRFQAEETADYMRWLSAQPPRSVVYVSFGSRKAIPRDQLRELAAGLEASGKRFLWVVKSTIVDRDDTADLGGLLGDGFLERVQGRAFVTMGWVEQEEILQHGSVGLFISHCGWNSLTEAAAFGVPVLAWPRFGDQRVNAALVARSGLGAWEEGWTWDGEEGLTTRKEVAKKIKGMMGYDAVAEKAAKVGDAAAAAIAKCGTSYQSLEEFVQRCRDAERK
modifications: Zea mays
B7: ZmCGT4: C-glycosyltransferase from maize, SEQ ID NO: 14 (protein)
chain: MSSPAPSSASRSSHGSRGSPRIVLFPSAGMGHLVPFTRLAVALSAGHGCEISLLTALPTVSSAESRHIAALYAAFPAIRQLDLRFAPFDASSEFPGADPFYLRYEALRRCAPSLLGPLLAGAGASALVVDMALASVAIPVARELHVPCFVFFTASATMLSFKAYFPTYLDDVGAGHGVGDVDVPGVYRIPSSSVPQALHDPDNIFTRQFVANGRALATADGLLVNAFHAMEPEAVEALQGRFVLSVLPPVFAVGPLMPVNDLRETGEAAQKQGNYRAWLDEQPPRSVVYVSFGSRKALPKDQIKELAAGLEACGHRFLWVVKGAVVDRDDAGELSELLGEAFLRRVHGRGLVTKSWVEQEEVLRHPAVALFVSHCGWNSVTEAVSSGVPVLAWPRFADQRVNARVVVRCGLGVWADQWSWEGEEALVRAEEITALVMEAMEDDAMAVKAANVREAASRAVVDGGTSYRSLAAFVRRCTA
modifications: Zea mays
B8: ZmCGT5: C-glycosyltransferase from maize, SEQ ID NO: 15 (protein)
chain: B7 chain with A9P, G18S, E50D, L54V
modifications: Zea mays

Experiment: In vitro functional identification of C-glycosyltransferases by HPLC, phloretin as glycosyl receptor
Type: biochemical
Details: 0.1 mM phloretin, 0.3 mM UDP glucose, crude enzyme, 37° C., 2 h, HPLC (FIG. 1A)
Description: The recombinant plasmid was transformed into competent cells of Escherichia coli BL21 (DE3), and cultured overnight at 37° C. in solid LB medium (kanamycin 50 μg/mL). Single colony was transferred to a 2 mL LB liquid medium (containing 50 μg/ml kanamycin) and incubated overnight. The bacterial fluid was transferred to a new 100 ml LB liquid medium with antibiotics and incubated at 37° C. and 250 r/min until OD600 reached 0.5-0.6. The culture was cooled down to 16° C. in a water bath. Then inducer IPTG was added at a final concentration of 0.1 mM. The mixture was cultured at 16° C. for low temperature induction and 180 r/min for 20 h. The BL21(DE3) recombinant strain carrying the pET28a empty plasmid was used as a blank control, and the culture operation was the same as above. The bacteria were harvested by centrifugation (6000 r/min, 5 min), re-suspended in 1 mL of lysis buffer Buffer A (20 mM Tris-HCl, pH 8.0; 100 mM NaCl), and DNase was added to a final concentration of 5 μg/mL, Mg^2+ to a final concentration of 2 mM; protease inhibitor PMSF to a final concentration of 1 mM; the bacteria were incubated on ice for 30 min and then sonicated; refrigerated centrifugation (10,000 rpm, 30 min, 4° C.), filtered through a 0.2 µm filter membrane to obtain the supernatant crude enzyme solution, and added 20% glycerol for cryopreservation (−20° C.).
The in vitro enzyme catalytic assay system is 100 μL. The reaction system includes: 0.1 mM glycosyl receptor (phloretin or 2-hydroxynaringenin), 0.3 mM UDP glucose, 25 μL supernatant crude enzyme solution, and Buffer A is used to make up the volume to 100 μL, and react at 37° C. for 2 h. After the reaction was completed, an equal volume of methanol was added to terminate the reaction, and HPLC was used for product analysis. HPLC detection conditions: chromatographic column: reverse phase C18 column [SilGreen ODS column (ø 4.6×250 mm)], detection wavelength 280 nm; mobile phase: acetonitrile (0.1% formic acid)-water (0.1% formic acid) mixture gradient elution, with increased ratio from 5:95 to 100:0 within 0 to 20 min, and the flow rate was 1 mL/min.

| Molecule | 5′ C-glycosylation of 3′-glycosylated phloretin giving phloretin-3′,5′-C-diglucoside | conversion of substrate phloretin to C-glycosylated product (Nothofagin) |
| --- | --- | --- |
| B1 | can catalyze the glycosylation of the 3′-glycosylated phloretin at the 5′ position | can convert the substrate phloretin to a product having a shorter retention time |
| B2 |  | can convert the substrate phloretin to a product having a shorter retention time |
| B3 | can catalyze the glycosylation of the 3′-glycosylated phloretin at the 5′ position | can convert the substrate phloretin to a product having a shorter retention time |
| B4 |  | can convert the substrate phloretin to a product having a shorter retention time |
| B5 |  | can convert the substrate phloretin to a product having a shorter retention time |
| B6 | can catalyze the glycosylation of the 3′-glycosylated phloretin at the 5′ position | can convert the substrate phloretin to a product having a shorter retention time |
| B7 |  | can convert the substrate phloretin to a product having a shorter retention time |
| B8 |  | can convert the substrate phloretin to a product having a shorter retention time |

— patent publication US20230066984A1, “New Carbon Glycoside Glycosyltransferase and Use Thereof” (CAS Center for Excellence in Molecular Plant Sciences, priority 2020, published 2023)
